Test results from article PMC2172693.

Target: tetramethylrhodamine isothiocyanate-labeled actin (UniProt P68139)
Experiment: optical trap

step duration (τon)	Substance
106 ms	heterodimeric heavy meromyosin with one wild-type head and one E470A head (from UniProt P10587;P02607) (complex)
189 ms	single-headed subfragment-1 with neonatal epitope tag at its COOH terminus (from UniProt P10587;P02607) (complex)
104 ms	wild-type smooth muscle heavy meromyosin (from UniProt P10587;P02607) (complex)
